In patent US20250092426, “CAS ENDONUCLEASES AND RELATED METHODS” (Flagship Pioneering Innovations VII, LLC, published 2025):

Molecular target: T1, CasEnd-24 (synthetic construct)
T1 chain: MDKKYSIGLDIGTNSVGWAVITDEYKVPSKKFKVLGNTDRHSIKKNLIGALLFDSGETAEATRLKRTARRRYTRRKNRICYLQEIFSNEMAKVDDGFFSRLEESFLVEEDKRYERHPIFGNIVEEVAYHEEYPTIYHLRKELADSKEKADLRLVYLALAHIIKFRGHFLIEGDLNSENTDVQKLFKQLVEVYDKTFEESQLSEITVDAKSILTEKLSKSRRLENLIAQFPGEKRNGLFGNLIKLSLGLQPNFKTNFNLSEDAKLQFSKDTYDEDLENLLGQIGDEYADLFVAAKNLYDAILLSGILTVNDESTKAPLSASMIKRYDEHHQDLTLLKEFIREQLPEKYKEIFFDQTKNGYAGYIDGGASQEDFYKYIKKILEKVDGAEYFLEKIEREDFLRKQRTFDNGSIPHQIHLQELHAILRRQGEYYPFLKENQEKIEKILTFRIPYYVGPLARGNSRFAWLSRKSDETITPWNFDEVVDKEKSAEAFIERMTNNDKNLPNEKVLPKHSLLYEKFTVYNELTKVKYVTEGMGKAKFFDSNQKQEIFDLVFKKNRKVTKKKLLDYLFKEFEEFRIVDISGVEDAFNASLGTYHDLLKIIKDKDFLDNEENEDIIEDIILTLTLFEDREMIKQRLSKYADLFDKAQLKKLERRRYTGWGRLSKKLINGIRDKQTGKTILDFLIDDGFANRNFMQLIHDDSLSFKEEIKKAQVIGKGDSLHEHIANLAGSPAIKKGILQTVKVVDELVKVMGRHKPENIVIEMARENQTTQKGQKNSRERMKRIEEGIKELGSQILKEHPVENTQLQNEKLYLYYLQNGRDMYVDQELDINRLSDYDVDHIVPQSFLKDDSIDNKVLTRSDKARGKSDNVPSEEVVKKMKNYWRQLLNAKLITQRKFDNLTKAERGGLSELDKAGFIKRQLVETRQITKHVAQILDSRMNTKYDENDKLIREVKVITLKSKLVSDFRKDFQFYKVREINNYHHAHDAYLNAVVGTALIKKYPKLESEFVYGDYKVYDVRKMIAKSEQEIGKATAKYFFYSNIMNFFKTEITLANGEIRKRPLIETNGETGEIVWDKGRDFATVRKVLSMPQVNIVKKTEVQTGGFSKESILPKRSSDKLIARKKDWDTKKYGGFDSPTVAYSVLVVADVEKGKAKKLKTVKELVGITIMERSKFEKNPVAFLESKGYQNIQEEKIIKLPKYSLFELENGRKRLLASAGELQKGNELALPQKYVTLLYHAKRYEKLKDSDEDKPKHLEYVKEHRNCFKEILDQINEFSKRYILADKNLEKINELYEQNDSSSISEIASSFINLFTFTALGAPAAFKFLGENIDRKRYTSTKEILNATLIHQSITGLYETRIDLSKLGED
Test: cell_activity; +++; HEK293T; PAM not stated
Procedure, shortened: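 BFP-to-GFP conversion via reverse transcriptase fusion with each Cas endonuclease plus template RNA: 200 ng of each plasmid nucleofected into 250,000 BFP-expressing HEK293T cells (program DS-150). Percent GFP+ cells by flow cytometry at day 4 measured editing.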

B1: BFP-to-GFP template RNA ; BFP reporter protospacer (ssRNA ; dsDNA)
RNA: GCCGAAGCACUGCACGCCGUGUUUUAGAGCUAGAAAUAGCAAGUUAAAAUAAGGCUAGUCCGUUAUCAACUUGAAAAAGUGGCACCGAGUCGGUGCACCCUGACGUACGGCGUGCAGUGCUU
DNA 1: GCCGAAGCACTGCACGCCGT
DNA 2: ACGGCGTGCAGTGCTTCGGC
  activity: ≥ 100 % of reference
